{
  "source": "IntAct's records for PubMed 18196517",
  "parents": {"B1": {"name": "Sorting nexin-20 (Homo sapiens), Q7Z614 (parent)", "chain": "MASPEHPGSPGCMGPITQCTARTQQEAPATGPDLPHPGPDGHLDTHSGLSSNSSMTTRELQQYWQNQKCRWKHVKLLFEIASARIEERKVSKFVVYQIIVIQTGSFDNNKAVLERRYSDFAKLQKALLKTFREEIEDVEFPRKHLTGNFAEEMICERRRALQEYLGLLYAIRCVRRSREFLDFLTRPELREAFGCLRAGQYPRALELLLRVLPLQEKLTAHCPAAAVPALCAVLLCHRDLDRPAEAFAAGERALQRLQAREGHRYYAPLLDAMVRLAYALGKDFVTLQERLEESQLRRPTPRGITLKELTVREYLH", "partner": "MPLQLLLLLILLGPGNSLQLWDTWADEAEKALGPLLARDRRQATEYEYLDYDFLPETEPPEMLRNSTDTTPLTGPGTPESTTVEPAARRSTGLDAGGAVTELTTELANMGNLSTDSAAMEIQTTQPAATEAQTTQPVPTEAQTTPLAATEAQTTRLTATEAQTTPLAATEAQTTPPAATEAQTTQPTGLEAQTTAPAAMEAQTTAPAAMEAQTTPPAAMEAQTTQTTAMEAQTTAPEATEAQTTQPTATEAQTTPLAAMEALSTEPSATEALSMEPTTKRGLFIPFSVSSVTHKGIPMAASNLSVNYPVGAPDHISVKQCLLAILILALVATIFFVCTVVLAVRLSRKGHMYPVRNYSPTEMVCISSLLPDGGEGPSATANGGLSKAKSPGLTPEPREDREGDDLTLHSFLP"}},
  "data": [
    {"variants_of": "B1", "conditions": "with selpl_human SELPLG", "values": [
      {"variant": "MASPEHPGSPGCMGPITQCTARTQQEAPATGPDLPHPGPDGHLDTHSGLSSNSSMTTRELQQYWQNQKCRWKHVKLLFEIASARIEERKVSKFVVYQIIVIQTGSFDNNKAVLERQYSDFAKLQKALLKTFREEIEDVEFPRKHLTGNFAEEMICERRRALQEYLGLLYAIRCVRRSREFLDFLTRPELREAFGCLRAGQYPRALELLLRVLPLQEKLTAHCPAAAVPALCAVLLCHRDLDRPAEAFAAGERALQRLQAREGHRYYAPLLDAMVRLAYALGKDFVTLQERLEESQLRRPTPRGITLKELTVREYLH", "note": "[R116Q]", "effect of a mutation on the interaction": "disrupting interaction"}
    ]}
  ]
}
